Assay results published in US20230213527A1 (published 2023).
Primed or numbered codes have the meaning given here. Ends that are not written are not given here. FITC′ = not defined here

What was measured:
Experiment in all cases: fluorescence polarization
[1] = molecular target: labeled peptide with N-terminal valine (X…-FITC, SEQ ID NO: 833, X = V) (C-terminal FITC label)
[2] = molecular target: T1, labeled peptide with N-terminal leucine (XAKLDEESILKQK-FITC, SEQ ID NO: 833, X = L)
T1 peptide: LAKLDEESILKQK-{FITC′}

[3] = molecular target: labeled peptide with N-terminal isoleucine (X…-FITC, SEQ ID NO: 833, X = I) (C-terminal FITC label)

B1: PS961 (designed binder)
chain: MPTAASATESAIEDTPAPARPEVDGRTKPKRQPRYHVVLWDDDDHTYQYVVVMLRSLFGHPPSRGYRMAKEMDTQGRVIVLTTTREHAELKRDQIHAFGRDRLLARSKGSMKASIEAEE
- Kd [1]: 144 nM
- Kd [2]: 55 nM
- Kd [3]: 68 nM
